± gives the uncertainty stated by the source.
Experiment: protein stability index of a GFP-peptide fusion (yeast GPS) (PSI 1-4); higher = more stable; sorted into four equal gates, so the index is relative within each strain
Method in brief: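 Tiled 17-residue peptides from yeast proteins were fused downstream of GFP on a plasmid that also expresses Cherry, and the pooled library was carried in yeast. Mid-log cultures grown in leucine-free medium were sorted into four equal gates by GFP/Cherry fluorescence ratio. Plasmids from each gate were PCR-amplified and Illumina-sequenced, and reads were assigned to strains by barcodes. Each peptide's protein stability index is the sum, over gates, of the gate's read frequency multiplied by its gate number.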

Sequence	protein stability index (doa10∆)	protein stability index (pdr5∆)	protein stability index (san1∆)	protein stability index (ubr1∆)
LDLIPHSSSVFKGTDFV [SRB4]	2.42 ± 0.062	2.74 ± 0.057	2.89 ± 0.068	2.4 ± 0.041
LDMELAELDPSLRTPIA [SEC65]	3.34 ± 0.14	3.26 ± 0.092	3.08 ± 0.081	3.06 ± 0.076
LDNFETKTEALLSDVVS [YJL041W/NSP1]	2.4 ± 0.054	2.72 ± 0.069	2.35 ± 0.063	2.12 ± 0.059
LDPNLITLALSSNPNSS [SRB4]	2.31 ± 0.067	2.86 ± 0.095	2.4 ± 0.084	2.56 ± 0.11
LDPTDDEGHVLKLENLH [SIN4]	–	3.16 ± 0.23	3.12 ± 0.13	–
LDQTKDTRITHLLRQTN [SNF2]	1.34 ± 0.036	1.41 ± 0.034	1.54 ± 0.061	1.32 ± 0.029
LDSDSENDLSFALMRYY [RRI2]	2.8 ± 0.068	2.89 ± 0.063	2.85 ± 0.057	2.91 ± 0.047
LEDGDVVLFNRQPSLHR [RPO31]	2.42 ± 0.072	2.67 ± 0.062	2.47 ± 0.072	2.08 ± 0.051
LEDKLRAVLTPLITRHC [RRP46]	2.53 ± 0.059	2.2 ± 0.05	2.33 ± 0.064	2.44 ± 0.035
LEERFDPKSPTKRSIAI [YMR129W/POM152]	2.94 ± 0.055	3.14 ± 0.055	2.9 ± 0.037	3.02 ± 0.034
LEETRTTIGDTTDKNTT [BRN1]	3.2 ± 0.071	3.27 ± 0.059	3.04 ± 0.055	3.17 ± 0.057
LEFSIYHRLSNKDMIKN [CSN12]	2.36 ± 0.096	2.91 ± 0.13	2.36 ± 0.18	2.79 ± 0.15
LEGKGSLEEIIAEGQKK [RPP2B]	2.5 ± 0.12	2.17 ± 0.072	3.1 ± 0.076	2.72 ± 0.046
LEHIDSKSEFAHRIMLT [FAS2]	2.17 ± 0.063	2.19 ± 0.069	2.72 ± 0.075	2.25 ± 0.063
LEHPYGKEVEVLMETKN [SNU114]	2.26 ± 0.083	2.98 ± 0.068	2 ± 0.1	2.21 ± 0.057
LEIMQLVCGNDSSYQDI [RET1]	–	–	3.18 ± 0.081	2.91 ± 0.17
LEIVYGYALRDVQARRQ [RPP1]	2.43 ± 0.15	1.92 ± 0.11	2.36 ± 0.13	2.3 ± 0.26
LEKGNNPSVKQGEVGAV [SWP82]	2.89 ± 0.076	3.13 ± 0.083	3.44 ± 0.052	2.7 ± 0.074
LEKKFPDRHVIFLAERR [RPS7B]	2.77 ± 0.066	2.87 ± 0.058	2.91 ± 0.046	3.1 ± 0.042
LEKKFQDRHVIFLAERR [RPS7A]	2.53 ± 0.23	2.9 ± 0.12	2.86 ± 0.27	2.71 ± 0.11
LEPDYQAPFSTSTKDKN [MED1]	2.84 ± 0.075	3 ± 0.08	2.81 ± 0.084	3.08 ± 0.074
LEPSGSYWGYKGAATGK [PRE10]	2.37 ± 0.27	–	–	2.37 ± 0.16
LERRELEGTRVSLEERT [SMC4]	3.4 ± 0.096	3.35 ± 0.082	3.29 ± 0.063	3.36 ± 0.1
LERVKRIMEKSVILSVI [YML031W/NDC1]	2.71 ± 0.086	2.17 ± 0.094	1.98 ± 0.096	1.61 ± 0.049
LESVGIEIEDEKVSSVL [RPP2A]	3.04 ± 0.075	2.67 ± 0.12	2.77 ± 0.12	2.78 ± 0.094
LEVGKNNFCALYNLSNP [RPN14]	1.58 ± 0.092	1.2 ± 0.14	1.43 ± 0.15	1.13 ± 0.046

Sequence	protein stability index (doa10∆)	protein stability index (pdr5∆)	protein stability index (san1∆)	protein stability index (ubr1∆)
LEVVQYIEDGRNPDIYT [NUT2]	3.14 ± 0.059	3.25 ± 0.049	3.15 ± 0.042	3.27 ± 0.039
LEYWCNPPYSQCIVYPN [SOH1]	2.03 ± 0.048	2.27 ± 0.045	2.05 ± 0.054	2.13 ± 0.037
LFDEFGNLIGVDPFDSD [SNU114]	3.12 ± 0.078	3.04 ± 0.069	2.87 ± 0.069	3.17 ± 0.058
LFEIYRDLGDDRVFNVP [YJR042W/NUP85]	2.87 ± 0.11	3.2 ± 0.1	2.75 ± 0.11	2.89 ± 0.097
LFEVNPSQTLFSISYKP [SRP21]	2.57 ± 0.071	2.84 ± 0.077	2.28 ± 0.091	2.64 ± 0.045
LFGNNAGNTTTGGGLFG [YGL172W/NUP49]	2.95 ± 0.18	3.37 ± 0.25	–	3.36 ± 0.17
LFKPLNKTLTLDLKECY [ARP7]	2.4 ± 0.067	2.14 ± 0.068	1.89 ± 0.15	2.27 ± 0.12
LFLEPSWSSSAAVIMRC [PCI8]	1.19 ± 0.087	2.07 ± 0.093	1.58 ± 0.16	2.39 ± 0.095
LFLNTGCLSVLYQSKGR [SRP68]	1.66 ± 0.054	1.55 ± 0.069	1.48 ± 0.12	1.25 ± 0.059
LFQENDDDDDDDDEVDY [DSN1]	2.94 ± 0.14	2.71 ± 0.1	2.97 ± 0.091	3.06 ± 0.15
LFVGTDRQLHEISTSKK [RPN14]	2.91 ± 0.07	2.91 ± 0.076	2.9 ± 0.092	2.7 ± 0.092
LGASFGQQQQQSQTNAF [YGL172W/NUP49]	2.09 ± 0.11	2.75 ± 0.075	2.07 ± 0.1	2.19 ± 0.075
LGEIPNPMKKHKPNEGR [SIR4]	2.58 ± 0.077	2.55 ± 0.086	2.8 ± 0.062	2.88 ± 0.04
LGFVLLRDYTTVPRIVQ [RPN2]	1.58 ± 0.046	1.66 ± 0.053	1.35 ± 0.076	1.42 ± 0.038
LGKLQDVFNLLPNLGTP [RPN8]	3.06 ± 0.12	3.29 ± 0.089	2.43 ± 0.085	2.82 ± 0.081
LGKYDLTVIEKLDSKKI [SRP68]	–	2.86 ± 0.23	3.53 ± 0.12	3.63 ± 0.16
LGMLDDNKMDSVKEDVK [SMC4]	2.12 ± 0.15	2.61 ± 0.13	2.09 ± 0.24	–
LGMMYEQKLIDQHVINI [YCS4]	2.08 ± 0.061	2.28 ± 0.051	2.21 ± 0.064	2.08 ± 0.05
LGQIGACHVEVPYVLMG [COB]	2.05 ± 0.083	2.01 ± 0.066	1.89 ± 0.12	1.95 ± 0.06
LGRLSVRELVEKIDGMD [RPC82]	3.08 ± 0.19	3.4 ± 0.26	3.23 ± 0.11	3.3 ± 0.063
LGSDSSDGHNSEKKDTD [SRB4]	1.68 ± 0.11	2.02 ± 0.2	1.59 ± 0.27	–
LGTTEGDIKVLDSNFNL [RPN14]	3.02 ± 0.12	3.11 ± 0.098	3.03 ± 0.078	3.26 ± 0.081
LGYNFDGSAIEDDDIRS [SNF5]	3.39 ± 0.086	3.26 ± 0.072	3.35 ± 0.068	3.35 ± 0.05
LHIHLNQILQTEIENYL [YDL116W/NUP84]	1.88 ± 0.054	2.15 ± 0.042	2.03 ± 0.075	1.86 ± 0.043
LHLDYNFNLKPTKTLTT [PRP8]	2.45 ± 0.034	2.7 ± 0.037	2.68 ± 0.039	2.5 ± 0.03
LHTARKILVLTGAGVST [SIR2]	2.06 ± 0.052	1.56 ± 0.054	2.33 ± 0.082	2.29 ± 0.059
